Laboratory results as given in the Human Domainome abundance scans (Beltran et al. 2025).
± gives the uncertainty stated by the source.

B1: LIM and senescent cell antigen-like-containing domain protein 2, residues 13 to 71; numbered along this chain, Q7Z4I7 (parent)
chain: AVCQRCQARFSPAERIVNSNGELYHEHCFVCAQCFRPFPEGLFYEFEGRKYCEHDFQML

Variants of: B1
Assay: abundance fitness (aPCA) (normalised: wild type 0, dead -1); higher = more abundant; growth selection in yeast, the domain comes from the species named
Settings: Homo sapiens

| Variant | abundance fitness |
| --- | --- |
| AVCQRCQARFSPAERIVNSHGELYHEHCFVCAQCFRPFPEGLFYEFEGRKYCEHDFQML [N20H] | 0.087 ± 0.11 |
| AVCQRCQARFSPAERIVNSIGELYHEHCFVCAQCFRPFPEGLFYEFEGRKYCEHDFQML [N20I] | -0.482 ± 0.2 |
| AVCQRCQARFSPAERIVNSKGELYHEHCFVCAQCFRPFPEGLFYEFEGRKYCEHDFQML [N20K] | 0.797 ± 0.096 |
| AVCQRCQARFSPAERIVNSLGELYHEHCFVCAQCFRPFPEGLFYEFEGRKYCEHDFQML [N20L] | -0.136 ± 0.062 |
| AVCQRCQARFSPAERIVNSMGELYHEHCFVCAQCFRPFPEGLFYEFEGRKYCEHDFQML [N20M] | -0.155 ± 0.1 |
| AVCQRCQARFSPAERIVNSPGELYHEHCFVCAQCFRPFPEGLFYEFEGRKYCEHDFQML [N20P] | -0.528 ± 0.12 |
| AVCQRCQARFSPAERIVNSQGELYHEHCFVCAQCFRPFPEGLFYEFEGRKYCEHDFQML [N20Q] | -0.116 ± 0.11 |
| AVCQRCQARFSPAERIVNSRGELYHEHCFVCAQCFRPFPEGLFYEFEGRKYCEHDFQML [N20R] | -0.161 ± 0.065 |
| AVCQRCQARFSPAERIVNSSGELYHEHCFVCAQCFRPFPEGLFYEFEGRKYCEHDFQML [N20S] | 0.087 ± 0.067 |
| AVCQRCQARFSPAERIVNSTGELYHEHCFVCAQCFRPFPEGLFYEFEGRKYCEHDFQML [N20T] | -0.085 ± 0.11 |
| AVCQRCQARFSPAERIVNSYGELYHEHCFVCAQCFRPFPEGLFYEFEGRKYCEHDFQML [N20Y] | -0.376 ± 0.15 |
| AVCQRCQARFSPAERIVNSNAELYHEHCFVCAQCFRPFPEGLFYEFEGRKYCEHDFQML [G21A] | -0.045 ± 0.066 |
| AVCQRCQARFSPAERIVNSNCELYHEHCFVCAQCFRPFPEGLFYEFEGRKYCEHDFQML [G21C] | -0.435 ± 0.13 |
| AVCQRCQARFSPAERIVNSNDELYHEHCFVCAQCFRPFPEGLFYEFEGRKYCEHDFQML [G21D] | -0.324 ± 0.12 |
| AVCQRCQARFSPAERIVNSNEELYHEHCFVCAQCFRPFPEGLFYEFEGRKYCEHDFQML [G21E] | 0.053 ± 0.13 |
| AVCQRCQARFSPAERIVNSNFELYHEHCFVCAQCFRPFPEGLFYEFEGRKYCEHDFQML [G21F] | -0.4 ± 0.097 |
| AVCQRCQARFSPAERIVNSNHELYHEHCFVCAQCFRPFPEGLFYEFEGRKYCEHDFQML [G21H] | -0.178 ± 0.087 |
| AVCQRCQARFSPAERIVNSNIELYHEHCFVCAQCFRPFPEGLFYEFEGRKYCEHDFQML [G21I] | -0.947 ± 0.36 |
| AVCQRCQARFSPAERIVNSNKELYHEHCFVCAQCFRPFPEGLFYEFEGRKYCEHDFQML [G21K] | -0.016 ± 0.12 |
| AVCQRCQARFSPAERIVNSNLELYHEHCFVCAQCFRPFPEGLFYEFEGRKYCEHDFQML [G21L] | -0.17 ± 0.06 |
| AVCQRCQARFSPAERIVNSNMELYHEHCFVCAQCFRPFPEGLFYEFEGRKYCEHDFQML [G21M] | -0.328 ± 0.11 |
| AVCQRCQARFSPAERIVNSNNELYHEHCFVCAQCFRPFPEGLFYEFEGRKYCEHDFQML [G21N] | -0.063 ± 0.11 |
| AVCQRCQARFSPAERIVNSNPELYHEHCFVCAQCFRPFPEGLFYEFEGRKYCEHDFQML [G21P] | -0.457 ± 0.11 |

| Variant | abundance fitness |
| --- | --- |
| AVCQRCQARFSPAERIVNSNQELYHEHCFVCAQCFRPFPEGLFYEFEGRKYCEHDFQML [G21Q] | -0.2 ± 0.11 |
| AVCQRCQARFSPAERIVNSNRELYHEHCFVCAQCFRPFPEGLFYEFEGRKYCEHDFQML [G21R] | -0.332 ± 0.073 |
| AVCQRCQARFSPAERIVNSNSELYHEHCFVCAQCFRPFPEGLFYEFEGRKYCEHDFQML [G21S] | -0.054 ± 0.063 |
| AVCQRCQARFSPAERIVNSNVELYHEHCFVCAQCFRPFPEGLFYEFEGRKYCEHDFQML [G21V] | -0.45 ± 0.071 |
| AVCQRCQARFSPAERIVNSNWELYHEHCFVCAQCFRPFPEGLFYEFEGRKYCEHDFQML [G21W] | -0.752 ± 0.2 |
| AVCQRCQARFSPAERIVNSNYELYHEHCFVCAQCFRPFPEGLFYEFEGRKYCEHDFQML [G21Y] | -0.518 ± 0.14 |
| AVCQRCQARFSPAERIVNSNGALYHEHCFVCAQCFRPFPEGLFYEFEGRKYCEHDFQML [E22A] | 0.079 ± 0.091 |
| AVCQRCQARFSPAERIVNSNGCLYHEHCFVCAQCFRPFPEGLFYEFEGRKYCEHDFQML [E22C] | 0.056 ± 0.1 |
| AVCQRCQARFSPAERIVNSNGDLYHEHCFVCAQCFRPFPEGLFYEFEGRKYCEHDFQML [E22D] | -0.598 ± 0.24 |
| AVCQRCQARFSPAERIVNSNGFLYHEHCFVCAQCFRPFPEGLFYEFEGRKYCEHDFQML [E22F] | 0.133 ± 0.12 |
| AVCQRCQARFSPAERIVNSNGGLYHEHCFVCAQCFRPFPEGLFYEFEGRKYCEHDFQML [E22G] | -0.096 ± 0.11 |
| AVCQRCQARFSPAERIVNSNGHLYHEHCFVCAQCFRPFPEGLFYEFEGRKYCEHDFQML [E22H] | 0.101 ± 0.096 |
| AVCQRCQARFSPAERIVNSNGILYHEHCFVCAQCFRPFPEGLFYEFEGRKYCEHDFQML [E22I] | -0.162 ± 0.1 |
| AVCQRCQARFSPAERIVNSNGKLYHEHCFVCAQCFRPFPEGLFYEFEGRKYCEHDFQML [E22K] | -0.01 ± 0.09 |
| AVCQRCQARFSPAERIVNSNGMLYHEHCFVCAQCFRPFPEGLFYEFEGRKYCEHDFQML [E22M] | -0.093 ± 0.11 |
| AVCQRCQARFSPAERIVNSNGNLYHEHCFVCAQCFRPFPEGLFYEFEGRKYCEHDFQML [E22N] | 0.053 ± 0.1 |
| AVCQRCQARFSPAERIVNSNGQLYHEHCFVCAQCFRPFPEGLFYEFEGRKYCEHDFQML [E22Q] | 0.216 ± 0.075 |
| AVCQRCQARFSPAERIVNSNGRLYHEHCFVCAQCFRPFPEGLFYEFEGRKYCEHDFQML [E22R] | 0.537 ± 0.053 |
| AVCQRCQARFSPAERIVNSNGSLYHEHCFVCAQCFRPFPEGLFYEFEGRKYCEHDFQML [E22S] | -0.093 ± 0.057 |
| AVCQRCQARFSPAERIVNSNGTLYHEHCFVCAQCFRPFPEGLFYEFEGRKYCEHDFQML [E22T] | -0.006 ± 0.075 |
| AVCQRCQARFSPAERIVNSNGVLYHEHCFVCAQCFRPFPEGLFYEFEGRKYCEHDFQML [E22V] | -0.098 ± 0.091 |
| AVCQRCQARFSPAERIVNSNGWLYHEHCFVCAQCFRPFPEGLFYEFEGRKYCEHDFQML [E22W] | -0.31 ± 0.088 |
